Measured values reported in the supplement of paper PMC11811203.

B1: THAP1; numbered along this chain (parent)
chain: MVQSCSAYGCKNRYDKDKPVSFHKFPLTRPSLCKEWEAAVRRKNFKPTKYSSICSEHFTPDCFKRECNNKLLKENAVPTIFLCTEPHDKKEDLLEPQEQLPPPPLPPPVSQVDAAIGLLMPPLQTPVNLSVFCDHNYTVEDTMHQRKRIHQLEQQVEKLRKKLKTAQQRCRRQERQLEKLKEVVHFQKEKDDVSERGYVILPNDYFEIVEVPA

Variants of: B1
Assay: THAP1 transcriptional activity (GFP+/GFP- enrichment relative to wild-type constructs) (ratio to WT); higher = more THAP1 activity (PSMB5 reporter activation)
Details: with PSMB5 promoter-GFP reporter
How it was run: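 A lentiviral site-saturation library covering residues 2–213 of human THAP1, with each position changed to all 20 amino acids, was transduced in duplicate at MOI ~0.3 into THAP1-knockout HEK-293T cells with mClover3 knocked in at endogenous PSMB5. Five days later, BFP+ cells were sorted into GFP-dim and GFP-bright bins and variants were counted by Illumina sequencing of genomic DNA amplicons. Activity is the bright/dim read fold change averaged over replicates and divided by the mean of wild-type synonymous constructs.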

How did the THAP1 transcriptional activity turn out when MVQSCSAYGCKNRYDKDKPVSFHKFPLTRPSLCKEWEAAVRRKNFKPTKYSSICSEHFTPDCFKRECNNKLLKENAVPTIFLCTEPHDKKEDLLEPQEQLPPPPLPPPVSQVDAAIGLLMPPLQTPVNLSVFCDHNRTVEDTMHQRKRIHQLEQQVEKLRKKLKTAQQRCRRQERQLEKLKEVVHFQKEKDDVSERGYVILPNDYFEIVEVPA [Y137R] was run?
The THAP1 transcriptional activity was 0.214.

MVQSCSAYGCKNRYDKDKPVSFHKFPLTRPSLCKEWEAAVRRKNFKPTKYSSICSEHFTPDCFKRECNNKLLKENAVPTIFLCTEPHDKKEDLLEPQEQLPPPPLPPPVSQVDAAIGLLMPPLQTPVNLSVFCDHNSTVEDTMHQRKRIHQLEQQVEKLRKKLKTAQQRCRRQERQLEKLKEVVHFQKEKDDVSERGYVILPNDYFEIVEVPA [Y137S] was tested. Which THAP1 transcriptional activity did it give?
Its THAP1 transcriptional activity is 0.137.

How did the THAP1 transcriptional activity turn out when MVQSCSAYGCKNRYDKDKPVSFHKFPLTRPSLCKEWEAAVRRKNFKPTKYSSICSEHFTPDCFKRECNNKLLKENAVPTIFLCTEPHDKKEDLLEPQEQLPPPPLPPPVSQVDAAIGLLMPPLQTPVNLSVFCDHNNTVEDTMHQRKRIHQLEQQVEKLRKKLKTAQQRCRRQERQLEKLKEVVHFQKEKDDVSERGYVILPNDYFEIVEVPA [Y137N] was run?
The THAP1 transcriptional activity was 0.195.

For MVQSCSAYGCKNRYDKDKPVSFHKFPLTRPSLCKEWEAAVRRKNFKPTKYSSICSEHFTPDCFKRECNNKLLKENAVPTIFLCTEPHDKKEDLLEPQEQLPPPPLPPPVSQVDAAIGLLMPPLQTPVNLSVFCDHNCTVEDTMHQRKRIHQLEQQVEKLRKKLKTAQQRCRRQERQLEKLKEVVHFQKEKDDVSERGYVILPNDYFEIVEVPA [Y137C], which THAP1 transcriptional activity is on record?
The THAP1 transcriptional activity was 0.147.

How did the THAP1 transcriptional activity turn out when MVQSCSAYGCKNRYDKDKPVSFHKFPLTRPSLCKEWEAAVRRKNFKPTKYSSICSEHFTPDCFKRECNNKLLKENAVPTIFLCTEPHDKKEDLLEPQEQLPPPPLPPPVSQVDAAIGLLMPPLQTPVNLSVFCDHTYTVEDTMHQRKRIHQLEQQVEKLRKKLKTAQQRCRRQERQLEKLKEVVHFQKEKDDVSERGYVILPNDYFEIVEVPA [N136T] was run?
The THAP1 transcriptional activity was 0.311.

For MVQSCSAYGCKNRYDKDKPVSFHKFPLTRPSLCKEWEAAVRRKNFKPTKYSSICSEHFTPDCFKRECNNKLLKENAVPTIFLCTEPHDKKEDLLEPQEQLPPPPLPPPVSQVDAAIGLLMPPLQTPVNLSVFCDHPYTVEDTMHQRKRIHQLEQQVEKLRKKLKTAQQRCRRQERQLEKLKEVVHFQKEKDDVSERGYVILPNDYFEIVEVPA [N136P], which THAP1 transcriptional activity is on record?
Its THAP1 transcriptional activity is 0.263.

How did the THAP1 transcriptional activity turn out when MVQSCSAYGCKNRYDKDKPVSFHKFPLTRPSLCKEWEAAVRRKNFKPTKYSSICSEHFTPDCFKRECNNKLLKENAVPTIFLCTEPHDKKEDLLEPQEQLPPPPLPPPVSQVDAAIGLLMPPLQTPVNLSVFCDHVYTVEDTMHQRKRIHQLEQQVEKLRKKLKTAQQRCRRQERQLEKLKEVVHFQKEKDDVSERGYVILPNDYFEIVEVPA [N136V] was run?
The THAP1 transcriptional activity was 0.0965.

How did the THAP1 transcriptional activity turn out when MVQSCSAYGCKNRYDKDKPVSFHKFPLTRPSLCKEWEAAVRRKNFKPTKYSSICSEHFTPDCFKRECNNKLLKENAVPTIFLCTEPHDKKEDLLEPQEQLPPPPLPPPVSQVDAAIGLLMPPLQTPVNLSVFCDHQYTVEDTMHQRKRIHQLEQQVEKLRKKLKTAQQRCRRQERQLEKLKEVVHFQKEKDDVSERGYVILPNDYFEIVEVPA [N136Q] was run?
Its THAP1 transcriptional activity is 0.102.

Which THAP1 transcriptional activity does the source give for MVQSCSAYGCKNRYDKDKPVSFHKFPLTRPSLCKEWEAAVRRKNFKPTKYSSICSEHFTPDCFKRECNNKLLKENAVPTIFLCTEPHDKKEDLLEPQEQLPPPPLPPPVSQVDAAIGLLMPPLQTPVNLSVFCDHSYTVEDTMHQRKRIHQLEQQVEKLRKKLKTAQQRCRRQERQLEKLKEVVHFQKEKDDVSERGYVILPNDYFEIVEVPA [N136S] here?
The THAP1 transcriptional activity was 0.345.

How did the THAP1 transcriptional activity turn out when MVQSCSAYGCKNRYDKDKPVSFHKFPLTRPSLCKEWEAAVRRKNFKPTKYSSICSEHFTPDCFKRECNNKLLKENAVPTIFLCTEPHDKKEDLLEPQEQLPPPPLPPPVSQVDAAIGLLMPPLQTPVNLSVFCDHYYTVEDTMHQRKRIHQLEQQVEKLRKKLKTAQQRCRRQERQLEKLKEVVHFQKEKDDVSERGYVILPNDYFEIVEVPA [N136Y] was run?
The THAP1 transcriptional activity was 0.187.

Which THAP1 transcriptional activity does the source give for MVQSCSAYGCKNRYDKDKPVSFHKFPLTRPSLCKEWEAAVRRKNFKPTKYSSICSEHFTPDCFKRECNNKLLKENAVPTIFLCTEPHDKKEDLLEPQEQLPPPPLPPPVSQVDAAIGLLMPPLQTPVNLSVFCDHWYTVEDTMHQRKRIHQLEQQVEKLRKKLKTAQQRCRRQERQLEKLKEVVHFQKEKDDVSERGYVILPNDYFEIVEVPA [N136W] here?
The THAP1 transcriptional activity was 0.0779.

Which THAP1 transcriptional activity does the source give for MVQSCSAYGCKNRYDKDKPVSFHKFPLTRPSLCKEWEAAVRRKNFKPTKYSSICSEHFTPDCFKRECNNKLLKENAVPTIFLCTEPHDKKEDLLEPQEQLPPPPLPPPVSQVDAAIGLLMPPLQTPVNLSVFCDHMYTVEDTMHQRKRIHQLEQQVEKLRKKLKTAQQRCRRQERQLEKLKEVVHFQKEKDDVSERGYVILPNDYFEIVEVPA [N136M] here?
Its THAP1 transcriptional activity is 0.134.

How did the THAP1 transcriptional activity turn out when MVQSCSAYGCKNRYDKDKPVSFHKFPLTRPSLCKEWEAAVRRKNFKPTKYSSICSEHFTPDCFKRECNNKLLKENAVPTIFLCTEPHDKKEDLLEPQEQLPPPPLPPPVSQVDAAIGLLMPPLQTPVNLSVFCDHRYTVEDTMHQRKRIHQLEQQVEKLRKKLKTAQQRCRRQERQLEKLKEVVHFQKEKDDVSERGYVILPNDYFEIVEVPA [N136R] was run?
The THAP1 transcriptional activity was 0.364.

Which THAP1 transcriptional activity does the source give for MVQSCSAYGCKNRYDKDKPVSFHKFPLTRPSLCKEWEAAVRRKNFKPTKYSSICSEHFTPDCFKRECNNKLLKENAVPTIFLCTEPHDKKEDLLEPQEQLPPPPLPPPVSQVDAAIGLLMPPLQTPVNLSVFCDHLYTVEDTMHQRKRIHQLEQQVEKLRKKLKTAQQRCRRQERQLEKLKEVVHFQKEKDDVSERGYVILPNDYFEIVEVPA [N136L] here?
Its THAP1 transcriptional activity is 0.102.
